Target: the molecule itself
Experiment: SEC-MALS

B1: CpMgm101-NoTag (untagged full-length mature Candida parapsilosis Mgm101) (natural protein, UniProt G8B839 30-266, looked up)
chain: VPKTASAKTTSKLAPSITTEDEVAEQDPSLQEPQSATSTASFAFHDAPPETRSVLNSSTNNNIDWSDSYHGLGSQPFSREIADILLAPIKDQDIEIKPDGLLYLPEIKYRRILNKAFGPGGWGLVPRTESLITKSQISREYGLICHGRLISIARGEQDYFGGEEKVTTALEGCKSNALMRCCKDLGIASELWDPGFIRKWKAKYCEEVFVEHVVNKKKKKLWKLKSNKKIEYPYKQL
Q: With B1 as the protein, how does the “stoichiometry N” value read?
A: 3

From article PMC4797282 (Nucleic Acids Research, 2016)
